Measurements reported in publication PMC12181280 (NPJ Biofilms and Microbiomes, 2025).

What was measured:
[1] = molecular target: S. aureus GudB (glutamate dehydrogenase) (S. aureus (endogenous in USA300 JE2)); assay: native gel or EMSA
SEC = molecular target: the molecule itself; assay: SEC
native gel or EMSA = molecular target: the molecule itself; assay: native gel or EMSA

Row | Molecule | stoichiometry N (SEC) | also measured
1 | S. aureus GudB (glutamate dehydrogenase) (enzyme) |  | stoichiometry N [1]: 3
2 | N-terminally His-tagged WT Bcd (B. subtilis Val/Leu/Ile dehydrogenase) (enzyme, UniProt P54531 1-364, looked up) MELFKYMEKYDYEQLVFCQDEQSGLKAIIAIHDTTLGPALGGTRMWTYENEEAAIEDALRLARGMTYKNAAAGLNLGGGKTVIIGDPRKDKNEEMFRAFGRYIQGLNGRYITAEDVGTTVEDMDIIHDETDYVTGISPAFGSSGNPSPVTAYGVYRGMKAAAKAAFGTDSLEGKTIAVQGVGNVAYNLCRHLHEEGANLIVTDINKQSVQRAVEDFGARAVDPDDIYSQDCDIYAPCALGATINDDTIKQLKAKVIAGAANNQLKETRHGDQIHEMGIVYAPDYVINAGGVINVADELYGYNAERALKKVEGIYGNIERVLEISQRDGIPAYLAADRLAEERIERMRRSRSQFLQNGHSVLSRR | 6 | 
3 | N-terminally His-tagged Bcd(K80A) (enzyme, B. subtilis, UniProt P54531 1-364, looked up) MELFKYMEKYDYEQLVFCQDEQSGLKAIIAIHDTTLGPALGGTRMWTYENEEAAIEDALRLARGMTYKNAAAGLNLGGGATVIIGDPRKDKNEEMFRAFGRYIQGLNGRYITAEDVGTTVEDMDIIHDETDYVTGISPAFGSSGNPSPVTAYGVYRGMKAAAKAAFGTDSLEGKTIAVQGVGNVAYNLCRHLHEEGANLIVTDINKQSVQRAVEDFGARAVDPDDIYSQDCDIYAPCALGATINDDTIKQLKAKVIAGAANNQLKETRHGDQIHEMGIVYAPDYVINAGGVINVADELYGYNAERALKKVEGIYGNIERVLEISQRDGIPAYLAADRLAEERIERMRRSRSQFLQNGHSVLSRR | 6 | 
4 | Bcd, native complex in B. subtilis NCIB3610 cell lysate (enzyme, B. subtilis (endogenous in NCIB3610), UniProt P54531 1-364, looked up) MELFKYMEKYDYEQLVFCQDEQSGLKAIIAIHDTTLGPALGGTRMWTYENEEAAIEDALRLARGMTYKNAAAGLNLGGGKTVIIGDPRKDKNEEMFRAFGRYIQGLNGRYITAEDVGTTVEDMDIIHDETDYVTGISPAFGSSGNPSPVTAYGVYRGMKAAAKAAFGTDSLEGKTIAVQGVGNVAYNLCRHLHEEGANLIVTDINKQSVQRAVEDFGARAVDPDDIYSQDCDIYAPCALGATINDDTIKQLKAKVIAGAANNQLKETRHGDQIHEMGIVYAPDYVINAGGVINVADELYGYNAERALKKVEGIYGNIERVLEISQRDGIPAYLAADRLAEERIERMRRSRSQFLQNGHSVLSRR |  | stoichiometry N (native gel or EMSA): 6
